Target: human FcRn (human) (UniProt P55899)
Experiment: SPR (BIAcore) steady state, immobilized IgG, human FcRn 16-2860 nM, pH 6.0

human FcRn (human), sequence (P55899 24-297 limits assumed, chain 1 of 2): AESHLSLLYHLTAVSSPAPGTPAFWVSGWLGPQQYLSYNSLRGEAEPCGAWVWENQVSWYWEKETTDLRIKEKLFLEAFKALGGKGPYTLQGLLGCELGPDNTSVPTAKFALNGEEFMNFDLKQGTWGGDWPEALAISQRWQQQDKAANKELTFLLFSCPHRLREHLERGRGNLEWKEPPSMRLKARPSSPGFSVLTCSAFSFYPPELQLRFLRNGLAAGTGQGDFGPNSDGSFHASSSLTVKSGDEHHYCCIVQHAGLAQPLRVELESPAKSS
human FcRn (human), sequence (P61769 21-119 limits assumed, chain 2 of 2, further chain): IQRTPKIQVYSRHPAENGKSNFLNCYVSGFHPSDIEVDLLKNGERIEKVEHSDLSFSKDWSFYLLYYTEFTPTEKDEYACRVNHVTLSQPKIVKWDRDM

Substance	Kd [µM]
MEDI-524 R255V (antibody)	11.3
MEDI-524 G385S + Q386I (antibody)	3.03
MEDI-524 L309N (antibody)	15.9
MEDI-524 (wild type) (antibody)	2.68
